Reference: patent US6596504B2, “Treatment of prophylaxis of diseases caused by pilus-forming bacteria” (Washington University, priority 1993, dated 2003)

Columns and labels:
PapD [1] = target: T1, PapD (Escherichia coli, UniProt P15319); experiment: ELISA: PapD binding to immobilized second site peptides of PapG; set-up: species or system E. coli; conditions: peptide coated on wells, 200 pmol PapD
T1 construct: (A) NAME/KEY: mat_; made in house; Lindberg et al. 1989
T1 sequence (P15319 22-239): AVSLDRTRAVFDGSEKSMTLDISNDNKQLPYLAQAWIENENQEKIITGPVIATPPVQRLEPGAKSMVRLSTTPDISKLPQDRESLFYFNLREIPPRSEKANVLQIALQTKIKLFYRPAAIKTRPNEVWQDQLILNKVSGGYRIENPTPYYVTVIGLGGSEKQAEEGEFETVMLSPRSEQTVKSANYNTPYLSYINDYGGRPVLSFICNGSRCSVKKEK
Method: Four synthetic peptides overlapping the PapG region from residue 156′ to 120′ (indicated in FIG. 20) were coated to wells of microtiter plates. The concentration of each peptide in the wells is indicated. Binding of 200 pmol/[…] of PapD to the immobilized peptide was determined by ELISA using anti-PapD antiserum.
For assaying the second site peptides, all the peptides were dissolved in dimethyl sulfoxide (DMSO, Sigma, St. Louis, Mo., USA) to a final concentration 2 mM. The stock solutions were diluted to a proper concentration in PBS and coated overnight on microtiter wells at 4° C. All the peptide solutions were adjusted to the same DMSO concentration. The subsequent steps followed the procedure described above.

HB101/pFJ3 [2] = experiment: Hemagglutination titer on co-expression of MBP/G fusions with the pap operon; type: cell-based, E. coli
Method: HB101/pFJ3 harbouring various MBP/G fusion plasmids was passaged on Trypticase Soy Agar (TSA, Becton Dickinson, Cockeysville, Md., USA) three times to induce P-pili expression. At the last passage, the expression of MBP/G fusions was induced on TSA containing 100 μM IPTG. The cells from different strains were then collected and the HA titers were determined as described (Jacob-Dubuisson et al., 1993b).
PapD is essential for P-pilus assembly (Hultgren et al., 1991). […] The ability of the MBP/G fusions to block pilus formation by inhibiting chaperone-subunit complex formation when co-expressed in trans with the pap operon was tested. Plasmids pMAL-p4, pMAL/G1′-19′, pMAL/G1′-81′ and pMAL/G1′-140′ were transformed into the strain HB101/pFJ3 which contains the pap operon under the control of its own promoter in the vector pACYC184 (Jacob-Dubuisson et al. 1993b). Each MBP/G fusion protein was localized in the periplasm as determined by SDS-PAGE and western blotting with anti-MBP antisera (data not shown). Hemagglutination (HA) assays were performed on the cells co-expressing the pap operon with either MBP (pMAL-p4) or with each of the MBP/G fusions. Co-expression of the MBP/G1′-140′ fusions with the pap operon decreased the HA titer 30 fold compared to the MBP control (see table 3).

HB101/pFJ3 [3] = experiment: Pili preparation and quantitation on co-expression of MBP/G fusions; type: cell-based, E. coli
Method: The cells obtained from TSA plates were collected. Pili were prepared from the same amounts of cells using the procedure described previously (Jacob-Dubuisson, et al., 1993b). These pili preparations were boiled in Lammeli sample buffer with 4 M urea, then analyzed on Coomassie blue stained SDS polyacrylamide gels. The relative amount of piliation was quantified by densitometric scanning of the PapA bands.

PapD [4] = target: T1, PapD; experiment: ELISA: PapD binding to immobilized MBP/G fusion proteins; set-up: species or system E. coli; conditions: 50 pmol PapD
Method: (B) Amylose affinity purified NBP/G fusion proteins were coated to wells of microtiter plates. The concentration of the MBP/G proteins in the wells is indicated. Binding of 50 pmol/[…] of PapD to the immobilized proteins was determined by ELISA using anti-PapD antiserum.
Stock solutions of MBP/G fusion proteins in PBS were diluted to 40 pmol/50 μl with PBS. The solutions of the 40 pmol/50 μl MBP/G fusion proteins were serially diluted in PBS and 50 μl of each solution were used to coat the wells of a 96-well Nunc Immunoplate (Inter Med, DK-4000 Roskilde, Denmark) overnight at 4° C. The wells were then washed with PBS and blocked with 200 μl of […] in PBS for 2 hours at 25° C. The plates were washed vigorously three times with PBS and incubated with 50 μl of PapD diluted at 50 pmol PapD in 50 μl 3% BSA-PBS for 45 minutes at 25° C. After three washings with PBS, the wells were incubated with a 1:500 dilution of rabbit anti-PapD antiserum in 3% BSA-PBS for 45 minutes at 25° C. After three washings with PBS, the wells were incubated with a 1:1000 dilution of goat antiserum to rabbit IgG coupled to alkaline phosphatase in 3% BSA-PBS for 45 minutes at 25° C. […] The reaction was incubated for 1 hour in the dark at 25° C. and the absorbance at 405 nm was read.

PapD [5] = target: T1, PapD; experiment: PapD-MBP/G interactions in vivo: co-elution of PapD on amylose affinity chromatography; type: binding, E. coli
Method: Strains carrying MBP or MBP/G fusion gene plasmids were induced in LB broth culture with 1 mM isopropylthiogalactoside (IPTG). Periplasmic extracts were prepared as described (Slonim et al., 1992). One tenth volume of 10×phosphate-buffered saline (PBS, 120 mM NaCl, 2.7 mM KCl, 10 mM Na2HPO4 and 2 mM KH2PO4, pH 7.4) was added to the periplasmic extract. Amylose resin was then added to the periplasmic extracts at a 1:5 ratio. The mixture was rocked at 4° C. overnight and the beads were subsequently washed 5 times with PBS. MBP or MBP/G fusion proteins were eluted with 20 mM maltose in PBS by rocking at 4° C. for an hour. Protein concentrations were determined using the Bio-Rad DC protein assay kit (Bio-Rad Laboratories, Hercules, Calif., USA). The full length fusion protein concentration was further quantitated by the Coomassie stained SDS-PAGE gel with known concentrations of bovine albumin (BSA) as the standards followed by densitometry scanning. […]
The ability of PapD to bind to the MBP/G fusions was investigated using amylose affinity chromatography (Kellermann and Ferenci, 1982). […] Periplasmic extracts from each strain containing the MBP/G proteins and PapD were subjected to amylose affinity chromatography and the eluates analyzed by SDS-PAGE (FIG. 21A) and by western blotting with anti-PapD antisera (FIG. 21B). […]

PapD [6] = target: T1, PapD; experiment: In vitro complex formation of PapD with MBP/G fusion proteins on silver stained IEF gel; type: binding, E. coli
Method: (A) PapD was incubated with 1 μg of amylose affinity purified MBP (lane), MBP-G1′-19′ (lane 2), MBP-G1′-81′ (lane 3), or MBP-G1′-140′ (lane 4) and complex formation was evaluated on the silver stained IEF gel. Positions of MBP/G fusions, PapD and the PapD-MBP-G1′-140′ complex are indicated.
The interaction between PapD and MBP/G fusion in vitro was assayed by incubating purified PapD (1 μg) and amylose bead affinity purified MBP/G fusion protein (1 μg) in 4 μl PBS for 30 minutes and then applied to IEF (pI 3-9), followed by silver staining. Another in vitro assay that is more quantitative is the ELISA described below.

G1′-19′WT peptide = target: T2, G1′-19′WT peptide (Escherichia coli, UniProt P13720); experiment: Native polyacrylamide gel mobility shift of PapD (wild type and mutants) with G1′-19′WT peptide; type: binding, E. coli; conditions: native-PAGE assay
T2 construct: G1′-19′ denotes the 19 C-terminal amino acid residues of PapG; made in house; host or cells: synthetic peptide
Excerpt: The ability of the mutant chaperones to bind pilus subunits and modulate pilus assembly in vivo was correlated to their ability to bind to the G1′-19′WT peptide and to PapG in vitro. […] Similarly, mutations in Arg-8 and Lys-112 abolished the ability of PapD to bind to PapG and reconstitute the PapD-PapG complex in vitro (FIG. 7) and to bind to pilus subunits and mediate pilus assembly in vivo (cf. table 2).

PapD [7] = target: T1, PapD; experiment: PapD complex formation with PapG truncates (acidic native gel, western blotting); type: binding, E. coli; conditions: co-expressed in KS474
Method: Periplasm containing PapD and PapG, PapG2 or PapG3 (lane 2, 3 and 4 respectively) were subjected to Gal α(1-4) Gal chromatography and eth eluates were analyzed on acidic native gel electrophoresis following western blotting using anti-PapD (A) and anti-PapG (B) antisera. Purified PapD-PapG complex was loaded-in lane 1.
PapD and the PapG-truncates were co-expressed in KS474, the truncates were induced at OD600 0.6 with 0.5 mM IPTG and PapD under the control of the arabinose promoter was induced with 0.2% arabinose. After one hour induction, periplasmic extracts were prepared and rocked with Gal α(1-4) Gal beads overnight at 4° C. and eluted with 15 μg/ml Gal α(1-4) Gal-TMSET solution as described previously (Hultgren et al., 1989; Kuehn et al., 1991). The eluates were analyzed by acidic native gel eletrophoresis (Striker et al., 1994) followed by western blotting using anti-PapD and anti-PapG antiserum.

Molecule: G125′-140′: peptide of C-terminal amino acid residues 125′ to 140′ of PapG, SEQ ID NO: 20 (DQIKQLPATNTLMLSF)
- binding to PapD in ELISA (PapD [1]): bound to PapD

Molecule: MBP/G1′-19′: fusion of maltose binding protein and COOH-terminal residues 1′-19′ of PapG
- effect on hemagglutination (HB101/pFJ3 [2]; co-expression in strains producing P pili): only weak effects on the HA titer
- HA titer (HB101/pFJ3 [2]; highest dilution of cell suspension yielding detectable HA, co-expression with pap operon): 64
- reduction of the amount of pili compared to MBP alone (HB101/pFJ3 [3]; co-expression with pap operon): about 50%
- Pilation percentage (HB101/pFJ3 [3]; densitometry of PapA bands, control HB101/pFJ3/pMAL-p4 = 100%): 50%
- inhibition of pilus assembly (HB101/pFJ3 [3]; expression in cells producing P pili): weak inhibitors
- PapD binding to immobilized fusion protein (PapD [4]): weakly
- interaction of PapD with MBP/G protein in vivo (co-elution) (PapD [5]; co-expressed, SDS-PAGE and western blot of eluates): only weakly
- stable complexes with PapD in the eluates (PapD [5]; silver stained IEF gel): not possible to detect stable complexes
- complex formation with PapD in vitro (PapD [6]): no complexes

B1: wild type PapD: periplasmic chaperone PapD of E. coli, wild type (protein, UniProt P15319 22-239, looked up)
Chaperone protein PapD: T1 sequence (P15319 22-239)
- mobility shift on incubation with G1′-19′WT peptide (G1′-19′WT peptide): cause a mobility shift

B2: full-length PapG: P pilus tip adhesin PapG (protein)
chain: GWHNVMFYAFNDYLTTNAGNVKVIDQPQLYIPWNTGSATATYYSCSGPEFASGVYFQEYLAWMVVPKHVYTNEGFNIFLDVQSKYGWSMENENDKDFYFFVNGYEWDTWTNNGARICFYPGNMKQLNNKFNDLVFRVLLPVDLPKGHYNFPVRYIRGIQHHYYDLWQDHYKMPYDQIKQLPATNTLMLSFDNVGGCQPSTQVLNIDHGSIVIDRANGNIASQTLSIYCDVPVSVKISLLRNTPPIYNNNKFSVGLGNGWDSIISLDGVEQSEEILRWYTAGSKTVKIESRLYGEEGKRKPGELSGSMTMVLSFP
- complex formation with PapD (PapD [7]): formed a complex
